76 sequences from the supplement of paper PMC7877785 can be followed below.

± gives the uncertainty stated by the source.

The nature of this series: self-splicing fitness, log relative to wild type (ln ratio); higher = more splicing; Tetrahymena group I intron in knt gene, E. coli kanamycin selection, DiMSum; sequences stand for … in CUCUCU…GGAGGGAAAAGUUAUCAGGCAUGCACCUGGUAGCUAGUCUUUAAACCAAUAGAUUGCAUCGGUUUAAAAGGCAAGACCGUCAAAUUGCGGGAAAGGGGUCAACAGCCGUUCAGUACCAAGUCUCAGGGGAAACUUUGAGAUGGCCUUGCAAAGGGUAUGGUAAUAAGCUGACGGACAUGGUCCUAACCACGCAGCCAAGUCCUAAGUCAACAGAUCUUCUGUUGAUAUGGAUGCAGUUCACAGACUAAAUGUCGGUCGGGGAAGAUGUAUUCUUCUCAUAAGAUAUAGUCGGACCUCUCCUUAAUGGGAGCUAGCGGAUGAAGUGAUGCAACACUGGAGCCGCUGGGAACUAAUUUGUAUGCGAAAGUAUAUUGAUUAGUUUUGGAGUACUCGUGGUCG
The gist of the method: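 The eight P1ex-region nucleotides of an intron in the knt kanamycin-resistance gene on pET-22b(+) were all randomised and the library put into E. coli BL21(DE3). Six replicate transformations were grown overnight at 37°C or 30°C on LB agar with or without 25 μg/mL kanamycin, together with 100 μg/mL carbenicillin, 50 μM IPTG and 0.2% rhamnose. Colonies were pooled and amplicon-sequenced on an Illumina HiSeq 2500. Fitness from DiMSum is the error-weighted combination of wild-type-normalised replicate fold changes, kanamycin over none.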

In the case of GUCGAGCAAUAUUACGACAC, the “self-splicing fitness (ln)” value reads like this: (30 °C) -0.476 ± 0.2; (37 °C) -1.13 ± 0.17.
The like results for CACUAGCAAUAUUACGCGCG were, in that order, -1.1 ± 0.11 and -0.054 ± 0.14.
The like results for GUAGAGCAAUAUUACGGCCC were, in that order, -1.36 ± 0.29 and -0.935 ± 0.32.
The like results for UUCCAGCAAUAUUACGCCGG were, in that order, -3.4 ± 0.33 and -2.98 ± 0.48.
In the case of CCUUAGCAAUAUUACGAGGU, the “self-splicing fitness (ln)” value was -4.03 ± 0.15 (30 °C) and -2.52 ± 0.15 (37 °C).
In the same order, the values of GGGUAGCAAUAUUACGUGGA are -3.45 ± 0.2 and -2.02 ± 0.097.
As for UUCGAGCAAUAUUACGGCCA, the “self-splicing fitness (ln)” value (37 °C) was -0.028 ± 0.31.
As to AAUAAGCAAUAUUACGAAAC, the “self-splicing fitness (ln)” value (30 °C) was -3.3 ± 0.39 and the “self-splicing fitness (ln)” value (37 °C) was -2.17 ± 0.49.
The like results for ACCAAGCAAUAUUACGAAUU were, in that order, -3.46 ± 0.17 and -2.13 ± 0.14.
The like results for CCAAAGCAAUAUUACGUAUU were, in that order, -4.14 ± 0.13 and -2.71 ± 0.12.
In the same order, the values of AGGUAGCAAUAUUACGCCUA are -0.599 ± 0.019 and -0.197 ± 0.035.
For the sequence CUCCAGCAAUAUUACGGAUU, the “self-splicing fitness (ln)” value runs as follows: (30 °C) -2.59 ± 0.26; (37 °C) -2.07 ± 0.18.
The like results for CAUCAGCAAUAUUACGUCUA were, in that order, -2.35 ± 0.095 and -1.58 ± 0.08.
In the same order, the values of GUCCAGCAAUAUUACGGCUA are -0.25 ± 0.068 and 0.143 ± 0.073.
In the case of ACCGAGCAAUAUUACGCUUC, the “self-splicing fitness (ln)” value (30 °C) is -2.06 ± 0.36.
With GUGUAGCAAUAUUACGCGAC, the “self-splicing fitness (ln)” value (30 °C) is -1.33 ± 0.45 and the “self-splicing fitness (ln)” value (37 °C) was -1.02 ± 0.27.
For the sequence CAUGAGCAAUAUUACGACGU, the “self-splicing fitness (ln)” value by setting is: (30 °C) -4.25 ± 0.39; (37 °C) -0.969 ± 0.2.
The like results for UCUAAGCAAUAUUACGCACA were, in that order, -2.26 ± 0.39 and -0.556 ± 0.47.
The like results for GGCUAGCAAUAUUACGUUGU were, in that order, -1.59 ± 0.083 and -0.434 ± 0.11.
The like results for UCAUAGCAAUAUUACGCAUU were, in that order, -2.86 ± 0.14 and -3.04 ± 0.22.
As for AGGGAGCAAUAUUACGCGUA, the “self-splicing fitness (ln)” value (30 °C) was -3.21 ± 0.31 and the “self-splicing fitness (ln)” value (37 °C) was -3.16 ± 0.23.
Regarding AGAGAGCAAUAUUACGCUGC, the “self-splicing fitness (ln)” value is, setting by setting: (30 °C) -2.3 ± 0.23; (37 °C) -2.63 ± 0.34.
In the same order, the values of CGGGAGCAAUAUUACGAUGC are -3.44 ± 0.2 and -2.91 ± 0.4.
In the same order, the values of GGCCAGCAAUAUUACGGGGC are -5.35 ± 0.32 and -4.33 ± 0.23.
In the case of CGUGAGCAAUAUUACGUAAC, the “self-splicing fitness (ln)” value (30 °C) was -3.13 ± 0.39 and the “self-splicing fitness (ln)” value (37 °C) is -2.78 ± 0.43.
In the same order, the values of ACAAAGCAAUAUUACGGUGG are -3.64 ± 0.11 and -2.07 ± 0.12.
The like results for UUGGAGCAAUAUUACGUAUU were, in that order, -4.53 ± 0.39 and -1.7 ± 0.22.
On to CAAUAGCAAUAUUACGCGUU, for which the “self-splicing fitness (ln)” value (30 °C) was -2.98 ± 0.09 and the “self-splicing fitness (ln)” value (37 °C) is -2.42 ± 0.1.
The like results for GACGAGCAAUAUUACGCCCU were, in that order, -2.99 ± 0.25 and -1.47 ± 0.19.
In the same order, the values of UAUAAGCAAUAUUACGUCAU are -3.37 ± 0.22 and -0.173 ± 0.15.
The like results for UUCCAGCAAUAUUACGUGCG were, in that order, -1.88 ± 0.1 and -1.59 ± 0.11.
Turning to CCAAAGCAAUAUUACGUGAU, the “self-splicing fitness (ln)” value is -3.5 ± 0.21 (30 °C) and -3.14 ± 0.24 (37 °C).
In the same order, the values of GCCUAGCAAUAUUACGGCCU are -2.48 ± 0.18 and -1.33 ± 0.24.
In the same order, the values of GAUAAGCAAUAUUACGGCAC are -0.252 ± 0.15 and -0.637 ± 0.17.
The like results for ACGCAGCAAUAUUACGGGUC were, in that order, -4.12 ± 0.21 and -2.92 ± 0.17.
On to UCAUAGCAAUAUUACGGGGG, for which the “self-splicing fitness (ln)” value reads like this: (30 °C) -2.69 ± 0.19; (37 °C) -2.27 ± 0.21.
On to AUAAAGCAAUAUUACGGUAC, for which the “self-splicing fitness (ln)” value runs as follows: (30 °C) -1.89 ± 0.11; (37 °C) -2.6 ± 0.17.
The like results for GAUCAGCAAUAUUACGAUCA were, in that order, -0.53 ± 0.13 and -0.636 ± 0.097.
The like results for CGCUAGCAAUAUUACGAGAU were, in that order, -3.86 ± 0.19 and -3.36 ± 0.23.
UAAGAGCAAUAUUACGUCUG: the “self-splicing fitness (ln)” value reads like this: (30 °C) -1.54 ± 0.093; (37 °C) -0.00255 ± 0.11.
In the same order, the values of AGCAAGCAAUAUUACGUUGA are -2.95 ± 0.12 and -1.37 ± 0.1.
Take ACGUAGCAAUAUUACGAAGG: the “self-splicing fitness (ln)” value is -2.19 ± 0.21 (30 °C) and -3.97 ± 0.46 (37 °C).
In the same order, the values of AUACAGCAAUAUUACGUCAG are -3.05 ± 0.13 and -1.23 ± 0.13.
Regarding UAAGAGCAAUAUUACGAGAA, the “self-splicing fitness (ln)” value (37 °C) is -1.68 ± 0.46.
Consider AUUUAGCAAUAUUACGGUCG, for which the “self-splicing fitness (ln)” value is, setting by setting: (30 °C) -1.98 ± 0.15; (37 °C) -1.38 ± 0.22.
With GGUGAGCAAUAUUACGCUAU, the “self-splicing fitness (ln)” value reads like this: (30 °C) -1.77 ± 0.32; (37 °C) -2.94 ± 0.4.
The like results for UUUAAGCAAUAUUACGACCU were, in that order, -1.72 ± 0.21 and -1.3 ± 0.18.
For CUACAGCAAUAUUACGGUAA, the “self-splicing fitness (ln)” value (30 °C) is -0.706 ± 0.066 and the “self-splicing fitness (ln)” value (37 °C) was -0.344 ± 0.076.
In the same order, the values of AGUUAGCAAUAUUACGCAGA are -2.06 ± 0.26 and -2.04 ± 0.26.
In the same order, the values of UGCGAGCAAUAUUACGCGUA are -4.01 ± 0.32 and -1.6 ± 0.14.
The like results for AAAUAGCAAUAUUACGAUAA were, in that order, -1.51 ± 0.12 and -0.658 ± 0.13.
CGAGAGCAAUAUUACGACCG: the “self-splicing fitness (ln)” value reads like this: (30 °C) -3.71 ± 0.43; (37 °C) -1.84 ± 0.33.
Turning to GCAUAGCAAUAUUACGUCCG, the “self-splicing fitness (ln)” value is -1.44 ± 0.081 (30 °C) and -0.899 ± 0.13 (37 °C).
The like results for CAUGAGCAAUAUUACGAAAU were, in that order, -2.72 ± 0.3 and -3.25 ± 0.43.
In the same order, the values of AGAAAGCAAUAUUACGGAGU are -2.55 ± 0.11 and -1.11 ± 0.11.
The like results for UUCCAGCAAUAUUACGCGGC were, in that order, -3.73 ± 0.47 and -1.38 ± 0.4.
For the sequence UCCGAGCAAUAUUACGGCAC, the “self-splicing fitness (ln)” value by setting is: (30 °C) -2.01 ± 0.18; (37 °C) -2.76 ± 0.24.
The like results for AUUUAGCAAUAUUACGAAGG were, in that order, -3.42 ± 0.38 and -2.76 ± 0.41.
The like results for ACGCAGCAAUAUUACGAAGU were, in that order, -3.6 ± 0.27 and -0.721 ± 0.13.
In the same order, the values of AUGUAGCAAUAUUACGAACC are -1 ± 0.18 and -0.513 ± 0.22.
On to ACAAAGCAAUAUUACGCGCC, for which the “self-splicing fitness (ln)” value was -0.241 ± 0.083 (30 °C) and -0.055 ± 0.1 (37 °C).
In the same order, the values of UAGGAGCAAUAUUACGAGCA are -2.38 ± 0.17 and -1.58 ± 0.15.
In the same order, the values of GCACAGCAAUAUUACGAUCC are -0.381 ± 0.11 and -0.0747 ± 0.16.
Take UCUUAGCAAUAUUACGAUGA: the “self-splicing fitness (ln)” value was -0.467 ± 0.082 (30 °C) and 0.223 ± 0.084 (37 °C).
In the same order, the values of GGUAAGCAAUAUUACGAUAG are -3.14 ± 0.2 and -2.14 ± 0.24.
In the same order, the values of AGAAAGCAAUAUUACGCUUA are -1.63 ± 0.11 and -0.632 ± 0.087.
Turning to CGACAGCAAUAUUACGCGUA, the “self-splicing fitness (ln)” value is -1.75 ± 0.28 (30 °C) and -1.58 ± 0.15 (37 °C).
In the same order, the values of GGAGAGCAAUAUUACGAGCA are -1.17 ± 0.35 and -1.86 ± 0.34.
Turning to GUUAAGCAAUAUUACGGACU, the “self-splicing fitness (ln)” value is -2.88 ± 0.2 (30 °C) and -1.8 ± 0.2 (37 °C).
In the same order, the values of GCCAAGCAAUAUUACGGCCU are -3.86 ± 0.32 and -1.67 ± 0.19.
The like results for GCAUAGCAAUAUUACGUGUA were, in that order, -2.43 ± 0.13 and -0.881 ± 0.084.
In the same order, the values of UGAUAGCAAUAUUACGUGAG are -0.705 ± 0.05 and -0.543 ± 0.087.
Turning to AGACAGCAAUAUUACGAAUA, the “self-splicing fitness (ln)” value (30 °C) was -2.38 ± 0.24 and the “self-splicing fitness (ln)” value (37 °C) was -1.62 ± 0.19.
As to UUGCAGCAAUAUUACGCUGG, where the note is “30 °C”, the “self-splicing fitness (ln)” value was -3.51 ± 0.32.
In the case of UCCUAGCAAUAUUACGUGGU, the “self-splicing fitness (ln)” value (30 °C) was -2.53 ± 0.1 and the “self-splicing fitness (ln)” value (37 °C) is -1.38 ± 0.096.
As for CUCAAGCAAUAUUACGACCA, under “37 °C”, the “self-splicing fitness (ln)” value was -0.985 ± 0.26.
